Measured values from IntAct's records for PubMed 16525419.

B1: Nephrin (Homo sapiens), O60500 (parent)
chain: MALGTTLRASLLLLGLLTEGLAQLAIPASVPRGFWALPENLTVVEGASVELRCGVSTPGSAVQWAKDGLLLGPDPRIPGFPRYRLEGDPARGEFHLHIEACDLSDDAEYECQVGRSEMGPELVSPRVILSILVPPKLLLLTPEAGTMVTWVAGQEYVVNCVSGDAKPAPDITILLSGQTISDISANVNEGSQQKLFTVEATARVTPRSSDNRQLLVCEASSPALEAPIKASFTVNVLFPPGPPVIEWPGLDEGHVRAGQSLELPCVARGGNPLATLQWLKNGQPVSTAWGTEHTQAVARSVLVMTVRPEDHGAQLSCEAHNSVSAGTQEHGITLQVTFPPSAIIILGSASQTENKNVTLSCVSKSSRPRVLLRWWLGWRQLLPMEETVMDGLHGGHISMSNLTFLARREDNGLTLTCEAFSEAFTKETFKKSLILNVKYPAQKLWIEGPPEGQKLRAGTRVRLVCLAIGGNPEPSLMWYKDSRTVTESRLPQESRRVHLGSVEKSGSTFSRELVLVTGPSDNQAKFTCKAGQLSASTQLAVQFPPTNVTILANASALRPGDALNLTCVSVSSNPPVNLSWDKEGERLEGVAAPPRRAPFKGSAAARSVLLQVSSRDHGQRVTCRAHSAELRETVSSFYRLNVLYRPEFLGEQVLVVTAVEQGEALLPVSVSANPAPEAFNWTFRGYRLSPAGGPRHRILSSGALHLWNVTRADDGLYQLHCQNSEGTAEARLRLDVHYAPTIRALQDPTEVNVGGSVDIVCTVDANPILPGMFNWERLGEDEEDQSLDDMEKISRGPTGRLRIHHAKLAQAGAYQCIVDNGVAPPARRLLRLVVRFAPQVEHPTPLTKVAAAGDSTSSATLHCRARGVPNIVFTWTKNGVPLDLQDPRYTEHTYHQGGVHSSLLTIANVSAAQDYALFTCTATNALGSDQTNIQLVSISRPDPPSGLKVVSLTPHSVGLEWKPGFDGGLPQRFCIRYEALGTPGFHYVDVVPPQATTFTLTGLQPSTRYRVWLLASNALGDSGLADKGTQLPITTPGLHQPSGEPEDQLPTEPPSGPSGLPLLPVLFALGGLLLLSNASCVGGVLWQRRLRRLAEGISEKTEAGSEEDRVRNEYEESQWTGERDTQSSTVSTTEAEPYYRSLRDFSPQLPPTQEEVSYSRGFTGEDEDMAFPGHLYDEVERTYPPSGAWGPLYDEVQMGPWDLHWPEDTYQDPRGIYDQVAGDLDTLEPDSLPFELRGHLV

What was measured:
nck1_human NCK1, P16333 = variants of: B1; conditions: with nck1_human NCK1, P16333
nck2_human NCK2, O43639 [1] = variants of: B1; conditions: with nck2_human NCK2, O43639
Sequence of nck2_human NCK2, O43639 (O43639 whole entry): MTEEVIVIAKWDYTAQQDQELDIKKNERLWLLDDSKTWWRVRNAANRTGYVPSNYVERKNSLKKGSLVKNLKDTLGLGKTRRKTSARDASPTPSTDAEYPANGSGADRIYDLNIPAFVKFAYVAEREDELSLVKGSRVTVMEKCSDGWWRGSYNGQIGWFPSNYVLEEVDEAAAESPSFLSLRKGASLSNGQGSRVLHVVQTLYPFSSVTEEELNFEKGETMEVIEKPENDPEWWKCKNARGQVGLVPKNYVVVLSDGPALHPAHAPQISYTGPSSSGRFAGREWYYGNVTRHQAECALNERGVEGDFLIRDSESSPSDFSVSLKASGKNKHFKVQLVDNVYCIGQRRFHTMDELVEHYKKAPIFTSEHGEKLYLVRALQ

wasp_mouse Was, P70315 = variants of: B1; conditions: with wasp_mouse Was
Sequence of wasp_mouse Was, P70315 (P70315 whole entry): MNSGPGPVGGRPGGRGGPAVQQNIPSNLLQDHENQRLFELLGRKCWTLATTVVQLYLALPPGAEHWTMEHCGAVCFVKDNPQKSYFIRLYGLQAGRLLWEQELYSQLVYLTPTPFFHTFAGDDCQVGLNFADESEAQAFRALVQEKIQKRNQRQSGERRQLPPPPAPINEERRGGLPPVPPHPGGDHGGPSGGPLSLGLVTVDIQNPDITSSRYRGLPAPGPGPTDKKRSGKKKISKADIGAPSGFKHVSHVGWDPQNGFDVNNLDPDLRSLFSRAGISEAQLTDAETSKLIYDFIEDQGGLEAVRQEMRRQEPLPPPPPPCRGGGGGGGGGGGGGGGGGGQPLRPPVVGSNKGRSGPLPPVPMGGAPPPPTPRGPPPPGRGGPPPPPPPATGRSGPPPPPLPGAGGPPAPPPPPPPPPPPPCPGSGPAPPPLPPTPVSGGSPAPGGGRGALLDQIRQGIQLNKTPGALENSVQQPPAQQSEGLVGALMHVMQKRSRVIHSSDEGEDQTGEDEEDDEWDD

nck2_human NCK2, O43639 [2] = variants of: B1; conditions: with nck2_human NCK2, O43639; remark: listed apart in the source

Variant	effect of a mutation on the interaction (nck1_human NCK1, P16333)	effect of a mutation on the interaction (nck2_human NCK2, O43639 [1])	effect of a mutation on the interaction (wasp_mouse Was, P70315)	effect of a mutation on the interaction (nck2_human NCK2, O43639 [2])
Y1176F;Y1193F;Y1217F	decreasing interaction	disrupting interaction	disrupting interaction	disrupting interaction
Y1176F;Y1217F	decreasing interaction			
Y1193F;Y1217F	decreasing interaction			
